From the supplement of paper PMC9112550, “Optimization of the antimicrobial peptide Bac7 by deep mutational scanning” (BMC Biology, 2022)

System: Escherichia coli TOP10
Assay: shrunken log2 fold change of peptide-encoding DNA abundance (4.5 h post-induction vs induction); higher = less antimicrobial activity (less host growth inhibition)
Conditions: time post-induction: 4.5 h; library: site-saturation at positions 5, 18, 19, 20
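Further: peptides expressed intracellularly from a pBAD plasmid library in pooled LB shake-flask culture, induced with 0.3% L-arabinose, DNA abundance read by NGS, three biological replicates, DESeq2 with apeglm shrinkage.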

RRIRYRPPRLPRPRPRPCPMPRP
shrunken log2 fold change: -0.476

RRIRYRPPRLPRPRPRPCQLPRP
shrunken log2 fold change: -0.00957

RRIRYRPPRLPRPRPRPCRNPRP
shrunken log2 fold change: -0.072

RRIRYRPPRLPRPRPRPCRSPRP
shrunken log2 fold change: 0.00487

RRIRYRPPRLPRPRPRPCSHPRP
shrunken log2 fold change: -0.566

RRIRYRPPRLPRPRPRPCSSPRP
shrunken log2 fold change: -0.941

RRIRYRPPRLPRPRPRPCTFPRP
shrunken log2 fold change: -0.208

RRIRYRPPRLPRPRPRPCVCPRP
shrunken log2 fold change: -1.24

RRIRYRPPRLPRPRPRPCVMPRP
shrunken log2 fold change: 0.0476

RRIRYRPPRLPRPRPRPCVQPRP
shrunken log2 fold change: -0.236

RRIRYRPPRLPRPRPRPDGEPRP
shrunken log2 fold change: -0.159

RRIRYRPPRLPRPRPRPDGKPRP
shrunken log2 fold change: -0.01

RRIRYRPPRLPRPRPRPDGQPRP
shrunken log2 fold change: 0.0173

RRIRYRPPRLPRPRPRPDHQPRP
shrunken log2 fold change: -0.167

RRIRYRPPRLPRPRPRPDICPRP
shrunken log2 fold change: -0.0244

RRIRYRPPRLPRPRPRPDIDPRP
shrunken log2 fold change: -0.172

RRIRYRPPRLPRPRPRPDKPPRP
shrunken log2 fold change: -0.0375

RRIRYRPPRLPRPRPRPDLFPRP
shrunken log2 fold change: 0.108

RRIRYRPPRLPRPRPRPDLHPRP
shrunken log2 fold change: -0.0267

RRIRYRPPRLPRPRPRPDNFPRP
shrunken log2 fold change: -1.09

RRIRYRPPRLPRPRPRPDRYPRP
shrunken log2 fold change: -0.0871

RRIRYRPPRLPRPRPRPDSMPRP
shrunken log2 fold change: 0.00804

RRIRYRPPRLPRPRPRPDSPPRP
shrunken log2 fold change: -0.391

RRIRYRPPRLPRPRPRPDTAPRP
shrunken log2 fold change: -0.343

RRIRYRPPRLPRPRPRPDTHPRP
shrunken log2 fold change: -0.22

RRIRYRPPRLPRPRPRPDVIPRP
shrunken log2 fold change: -0.0708

RRIRYRPPRLPRPRPRPDYCPRP
shrunken log2 fold change: -0.00674

RRIRYRPPRLPRPRPRPDYYPRP
shrunken log2 fold change: -0.00141

RRIRYRPPRLPRPRPRPECDPRP
shrunken log2 fold change: -0.235

RRIRYRPPRLPRPRPRPECEPRP
shrunken log2 fold change: -0.185

RRIRYRPPRLPRPRPRPEFDPRP
shrunken log2 fold change: -0.0306

RRIRYRPPRLPRPRPRPEFYPRP
shrunken log2 fold change: -0.316

RRIRYRPPRLPRPRPRPEGKPRP
shrunken log2 fold change: -0.0361

RRIRYRPPRLPRPRPRPEHIPRP
shrunken log2 fold change: -0.0114

RRIRYRPPRLPRPRPRPEHNPRP
shrunken log2 fold change: -0.0212

RRIRYRPPRLPRPRPRPEHWPRP
shrunken log2 fold change: -0.0026

RRIRYRPPRLPRPRPRPEIQPRP
shrunken log2 fold change: 0.0356

RRIRYRPPRLPRPRPRPEMTPRP
shrunken log2 fold change: -0.0508

RRIRYRPPRLPRPRPRPERGPRP
shrunken log2 fold change: -0.0437

RRIRYRPPRLPRPRPRPERPPRP
shrunken log2 fold change: 0.232

RRIRYRPPRLPRPRPRPESGPRP
shrunken log2 fold change: -0.0308

RRIRYRPPRLPRPRPRPESIPRP
shrunken log2 fold change: -0.42

RRIRYRPPRLPRPRPRPEVRPRP
shrunken log2 fold change: -0.187

RRIRYRPPRLPRPRPRPEWCPRP
shrunken log2 fold change: -0.244

RRIRYRPPRLPRPRPRPEYRPRP
shrunken log2 fold change: -0.00979

RRIRYRPPRLPRPRPRPFAFPRP
shrunken log2 fold change: -1.05

RRIRYRPPRLPRPRPRPFATPRP
shrunken log2 fold change: -0.49

RRIRYRPPRLPRPRPRPFAVPRP
shrunken log2 fold change: -1.09

RRIRYRPPRLPRPRPRPFAYPRP
shrunken log2 fold change: -0.00131

RRIRYRPPRLPRPRPRPFCRPRP
shrunken log2 fold change: -0.228

RRIRYRPPRLPRPRPRPFCSPRP
shrunken log2 fold change: -0.425

RRIRYRPPRLPRPRPRPFDCPRP
shrunken log2 fold change: -0.0565

RRIRYRPPRLPRPRPRPFGQPRP
shrunken log2 fold change: -0.219

RRIRYRPPRLPRPRPRPFIDPRP
shrunken log2 fold change: -0.018

RRIRYRPPRLPRPRPRPFIPPRP
shrunken log2 fold change: -0.296

RRIRYRPPRLPRPRPRPFKSPRP
shrunken log2 fold change: -0.0165

RRIRYRPPRLPRPRPRPFLWPRP
shrunken log2 fold change: -0.0621

RRIRYRPPRLPRPRPRPFMRPRP
shrunken log2 fold change: -0.499

RRIRYRPPRLPRPRPRPFNKPRP
shrunken log2 fold change: -0.00496

RRIRYRPPRLPRPRPRPFPGPRP
shrunken log2 fold change: -0.253

RRIRYRPPRLPRPRPRPFPHPRP
shrunken log2 fold change: -0.137

RRIRYRPPRLPRPRPRPFQHPRP
shrunken log2 fold change: -0.281

RRIRYRPPRLPRPRPRPFSIPRP
shrunken log2 fold change: -0.000407

RRIRYRPPRLPRPRPRPFSKPRP
shrunken log2 fold change: -0.107

RRIRYRPPRLPRPRPRPFTLPRP
shrunken log2 fold change: -0.019

RRIRYRPPRLPRPRPRPFVGPRP
shrunken log2 fold change: -0.193

RRIRYRPPRLPRPRPRPFVMPRP
shrunken log2 fold change: -1.07

RRIRYRPPRLPRPRPRPFWKPRP
shrunken log2 fold change: 0.226

RRIRYRPPRLPRPRPRPFWLPRP
shrunken log2 fold change: -0.0817

RRIRYRPPRLPRPRPRPFWPPRP
shrunken log2 fold change: 0.0953

RRIRYRPPRLPRPRPRPFWRPRP
shrunken log2 fold change: 0.0184

RRIRYRPPRLPRPRPRPGCRPRP
shrunken log2 fold change: -0.0618

RRIRYRPPRLPRPRPRPGDNPRP
shrunken log2 fold change: -0.0446

RRIRYRPPRLPRPRPRPGEFPRP
shrunken log2 fold change: -0.35

RRIRYRPPRLPRPRPRPGENPRP
shrunken log2 fold change: 0.00408

RRIRYRPPRLPRPRPRPGFDPRP
shrunken log2 fold change: -0.205

RRIRYRPPRLPRPRPRPGFMPRP
shrunken log2 fold change: -0.279

RRIRYRPPRLPRPRPRPGFNPRP
shrunken log2 fold change: -0.46

RRIRYRPPRLPRPRPRPGGAPRP
shrunken log2 fold change: 0.359

RRIRYRPPRLPRPRPRPGGDPRP
shrunken log2 fold change: 0.137

RRIRYRPPRLPRPRPRPGGLPRP
shrunken log2 fold change: 3.02

RRIRYRPPRLPRPRPRPGHSPRP
shrunken log2 fold change: -0.13

RRIRYRPPRLPRPRPRPGISPRP
shrunken log2 fold change: -0.0863

RRIRYRPPRLPRPRPRPGITPRP
shrunken log2 fold change: -0.444

RRIRYRPPRLPRPRPRPGMHPRP
shrunken log2 fold change: -0.339

RRIRYRPPRLPRPRPRPGQEPRP
shrunken log2 fold change: -0.0317

RRIRYRPPRLPRPRPRPGSGPRP
shrunken log2 fold change: -0.0839

RRIRYRPPRLPRPRPRPGTEPRP
shrunken log2 fold change: -0.521

RRIRYRPPRLPRPRPRPGTIPRP
shrunken log2 fold change: 0.137

RRIRYRPPRLPRPRPRPGWYPRP
shrunken log2 fold change: -0.344

RRIRYRPPRLPRPRPRPHAKPRP
shrunken log2 fold change: -0.0339

RRIRYRPPRLPRPRPRPHAPPRP
shrunken log2 fold change: -0.0159

RRIRYRPPRLPRPRPRPHDMPRP
shrunken log2 fold change: -0.00277

RRIRYRPPRLPRPRPRPHDVPRP
shrunken log2 fold change: -0.379

RRIRYRPPRLPRPRPRPHEYPRP
shrunken log2 fold change: -0.354

RRIRYRPPRLPRPRPRPHGEPRP
shrunken log2 fold change: 0.0796

RRIRYRPPRLPRPRPRPHGYPRP
shrunken log2 fold change: -0.0146

RRIRYRPPRLPRPRPRPHIMPRP
shrunken log2 fold change: -0.955

RRIRYRPPRLPRPRPRPHIWPRP
shrunken log2 fold change: -0.272

RRIRYRPPRLPRPRPRPHKWPRP
shrunken log2 fold change: -0.581

RRIRYRPPRLPRPRPRPHLRPRP
shrunken log2 fold change: -0.485

RRIRYRPPRLPRPRPRPHMTPRP
shrunken log2 fold change: -0.845

RRIRYRPPRLPRPRPRPHNLPRP
shrunken log2 fold change: -0.131

RRIRYRPPRLPRPRPRPHPPPRP
shrunken log2 fold change: 0.374

RRIRYRPPRLPRPRPRPHRRPRP
shrunken log2 fold change: -0.0466

RRIRYRPPRLPRPRPRPHRWPRP
shrunken log2 fold change: -0.0477

RRIRYRPPRLPRPRPRPHSNPRP
shrunken log2 fold change: -0.0748

RRIRYRPPRLPRPRPRPHSTPRP
shrunken log2 fold change: -0.181

RRIRYRPPRLPRPRPRPHVHPRP
shrunken log2 fold change: -0.00398

RRIRYRPPRLPRPRPRPHVVPRP
shrunken log2 fold change: -0.261

RRIRYRPPRLPRPRPRPHVYPRP
shrunken log2 fold change: -0.748

RRIRYRPPRLPRPRPRPHWSPRP
shrunken log2 fold change: -0.318

RRIRYRPPRLPRPRPRPIAHPRP
shrunken log2 fold change: -0.901

RRIRYRPPRLPRPRPRPIAPPRP
shrunken log2 fold change: -0.0464

RRIRYRPPRLPRPRPRPIEPPRP
shrunken log2 fold change: -0.111

RRIRYRPPRLPRPRPRPIGVPRP
shrunken log2 fold change: -0.0936

RRIRYRPPRLPRPRPRPIHDPRP
shrunken log2 fold change: -1.22

RRIRYRPPRLPRPRPRPIINPRP
shrunken log2 fold change: -0.099

RRIRYRPPRLPRPRPRPIIWPRP
shrunken log2 fold change: -0.152

RRIRYRPPRLPRPRPRPINNPRP
shrunken log2 fold change: -0.892

RRIRYRPPRLPRPRPRPIPMPRP
shrunken log2 fold change: -0.807

RRIRYRPPRLPRPRPRPIQCPRP
shrunken log2 fold change: -0.0422

RRIRYRPPRLPRPRPRPIRTPRP
shrunken log2 fold change: -0.258

RRIRYRPPRLPRPRPRPIWWPRP
shrunken log2 fold change: 0.136

RRIRYRPPRLPRPRPRPIYWPRP
shrunken log2 fold change: -0.204

RRIRYRPPRLPRPRPRPKCHPRP
shrunken log2 fold change: -0.139

RRIRYRPPRLPRPRPRPKFHPRP
shrunken log2 fold change: -1.15

RRIRYRPPRLPRPRPRPKFRPRP
shrunken log2 fold change: -0.102

RRIRYRPPRLPRPRPRPKGLPRP
shrunken log2 fold change: -0.0102

RRIRYRPPRLPRPRPRPKGWPRP
shrunken log2 fold change: 0.465

RRIRYRPPRLPRPRPRPKHDPRP
shrunken log2 fold change: -0.648

RRIRYRPPRLPRPRPRPKHGPRP
shrunken log2 fold change: -0.413

RRIRYRPPRLPRPRPRPKHPPRP
shrunken log2 fold change: -0.155

RRIRYRPPRLPRPRPRPKHQPRP
shrunken log2 fold change: -0.441

RRIRYRPPRLPRPRPRPKIAPRP
shrunken log2 fold change: -0.404

RRIRYRPPRLPRPRPRPKINPRP
shrunken log2 fold change: -0.902

RRIRYRPPRLPRPRPRPKKDPRP
shrunken log2 fold change: -0.719

RRIRYRPPRLPRPRPRPKKRPRP
shrunken log2 fold change: -0.11

RRIRYRPPRLPRPRPRPKKSPRP
shrunken log2 fold change: -0.298

RRIRYRPPRLPRPRPRPKKWPRP
shrunken log2 fold change: -0.113

RRIRYRPPRLPRPRPRPKLEPRP
shrunken log2 fold change: 0.00557

RRIRYRPPRLPRPRPRPKLIPRP
shrunken log2 fold change: -0.775

RRIRYRPPRLPRPRPRPKLSPRP
shrunken log2 fold change: -0.204

RRIRYRPPRLPRPRPRPKMLPRP
shrunken log2 fold change: 0.0981

RRIRYRPPRLPRPRPRPKMQPRP
shrunken log2 fold change: -0.344

RRIRYRPPRLPRPRPRPKNCPRP
shrunken log2 fold change: -0.0167

RRIRYRPPRLPRPRPRPKNRPRP
shrunken log2 fold change: -0.0456

RRIRYRPPRLPRPRPRPKNVPRP
shrunken log2 fold change: 0.0242

RRIRYRPPRLPRPRPRPKQQPRP
shrunken log2 fold change: -0.0891

RRIRYRPPRLPRPRPRPKQYPRP
shrunken log2 fold change: -0.409
